# Measured values from PMC9927937, “Loss of LGR4/GPR48 causes severe neonatal salt wasting due to disrupted WNT signaling altering adrenal zonation” (The Journal of Clinical Investigation, 2023).
# B1: GFP-tagged RSPO1 (ligand, UniProt Q2MKA7 21-263, looked up)
# chain: SRGIKGKRQRRISAEGSQACAKGCELCSEVNGCLKCSPKLFILLERNDIRQVGVCLPSCPPGYFDARNPDMNKCIKCKIEHCEACFSHNFCTKCKEGLYLHKGRCYPACPEGSSAANGTMECSSPAQCEMSEWSPWGPCSKKQQLCGFRRGSEERTRRVLHAPVGDHAACSDTKETRRCTVRRVPCPEGQKRRKGGQGRRENANRNLARKESKEAGAGSRRRKGQQQQQQQGTVGPLTSAGPA
# How the values were obtained:
# [1] = biological target: HA-tagged LGR4, wild type (human, UniProt Q9BXB1-1 25-951); assay: cell-based or functional assay
# [2] = biological target: HA-tagged LGR4 nt-24 variant (-8 AA) (human, UniProt Q9BXB1-1 25-951, p.(His207_Arg214)); assay: cell-based or functional assay
binder,measurement,setting,value
B1,"TOP-Flash luciferase reporter of Wnt/β-catenin signaling in HEK293T cells transfected with LGR4, stimulated by RSPO1 (fold over basal)",[1],6.1 fold
same,"TOP-Flash luciferase reporter of Wnt/β-catenin signaling in HEK293T cells transfected with LGR4, stimulated by RSPO1 (fold over basal)",[2],3.3 fold
